From article PMC5477842 (Science (New York, N.Y.), 2016) come the findings set out here.

The target of data set [1] is calmodulin (UniProt P0DP23 1-149). Kind of data set: cryo-EM structure.
Data set [2] concerns the molecule itself. In words: cryo-EM structure.

B1: Truncated rat Eag1 (rEag1Δ; Kv10.1 with residues 773-886 removed) (natural protein, UniProt Q63472 1-962, looked up)
chain: MTMAGGRRGLVAPQNTFLENIVRRSNDTNFVLGNAQIVDWPIVYSNDGFCKLSGYHRAEVMQKSSACSFMYGELTDKDTVEKVRQTFENYEMNSFEILMYKKNRTPVWFFVKIAPIRNEQDKVVLFLCTFSDITAFKQPIEDDSCKGWGKFARLTRALTSSRGVLQQLAPSVQKGENVHKHSRLAEVLQLGSDILPQYKQEAPKTPPHIILHYCVFKTTWDWIILILTFYTAILVPYNVSFKTRQNNVAWLVVDSIVDVIFLVDIVLNFHTTFVGPAGEVISDPKLIRMNYLKTWFVIDLLSCLPYDVINAFENVDEGISSLFSSLKVVRLLRLGRVARKLDHYIEYGAAVLVLLVCVFGLAAHWMACIWYSIGDYEIFDEDTKTIRNNSWLYQLALDIGTPYQFNGSGSGKWEGGPSKNSVYISSLYFTMTSLTSVGFGNIAPSTDIEKIFAVAIMMIGSLLYATIFGNVTTIFQQMYANTNRYHEMLNSVRDFLKLYQVPKGLSERVMDYIVSTWSMSRGIDTEKVLQICPKDMRADICVHLNRKVFKEHPAFRLASDGCLRALAMEFQTVHCAPGDLIYHAGESVDSLCFVVSGSLEVIQDDEVVAILGKGDVFGDVFWKEATLAQSCANVRALTYCDLHVIKRDALQKVLEFYTAFSHSFSRNLILTYNLRKRIVFRKISDVKREEEERMKRKNEAPLILPPDHPVRRLFQRFRQQKEARLAAERGGRDLDDLDVEKGNALTDHTSANHSLVKASVVTVRESPATPVSFYPIPEQTLQATVLEVKHELKEDIKALNAKMTSIEKQLSEILRILMSRGSSQSPQDTCEVSRPQSPESDRDIFGAS
modifications: N-acetyl glucosamine on N388 (density observed); glycosylation sites N388 and N406
What is called stoichiometry N is the number of molecules, sites or subunits per partner or assembly. With B1, the binding result in data set [1] is on record as “binds”. Besides, in data set [2], the “stoichiometry N” value came out at 4.
